# Data from patent US20230242902A1, “A HIGHLY ERROR-PRONE […] R[…] FOR TARGETED CONTINUOUS EVOLUTION IN VIVO” (The Regents of the University of California, priority 2017, published 2023).
# System: p1-encoded leu2 (Q180*)
# Test: Large-scale p1 fluctuation tests of p1-encoded leu2 (Q180*), per-base substitution rate
# Assay type: cell-based, S. cerevisiae
# Settings: per-base substitution rate, p1-encoded leu2 (Q180*), large-scale fluctuation test
# Text: All three TP-DNAP1 libraries were screened through small scale p1 fluctuation tests in a metastable S. cerevisiae strain, OR-Y24. OR-Y24 contains w.t. p1 and recombinant p1 that lacks w.t. TP-DNAP1, and instead, encodes a standardized fluorescence reporter of p1 copy number (Table 1), and a disabled version of the LEU2 selection marker (leu2 (Q180*)). As described previously (Ravikumar et al., 2014), leu2 (Q180*) contains a C→T mutation at base 538 in LEU2 at a site permissive to all single point mutants that generate missense mutations. Reversion to functional LEU2 can be detected on medium lacking leucine.
# Large-scale fluctuation tests of p1-encoded leu2 (Q180*) were performed to precisely determine per-base substitution rates for individually cloned or isolated TP-DNAP1 variants. Large-scale p1 fluctuation tests are performed similarly to small-scale p1 fluctuation tests, with several modifications. First, large-scale p1 fluctuation tests were typically performed with 36-48 replicates. For highly error-prone TP-DNAP1s obtained from later rounds of screening, fewer replicates (3-16) were used, which is sufficient for similar precision (Foster et al., 2006). Second, p1 copy number was determined by the flow cytometry method, described below. Third, cell titers were measured for each fluctuation test to estimate the average number of cells per culture. Cell resuspensions were diluted and plated on solid SC-UH medium, and colony counts were determined after incubation at 30° C. for 2-3 days. Alternatively, cell resuspensions were diluted and subject to an event-count measurement via flow cytometry. Fourth, inoculums of highly error-prone TP-DNAP 1 s occasionally contained pre-existing mutants, despite the 1:10,000 dilution, so mutant frequencies were estimated by plating pre-cultures on solid SC-UHLW, pH 5.8 medium. Plates were incubated for 2-3 days, in parallel with cultures grown for fluctuation tests. Pre-culture mutant titers were counted to estimate the number of replicates in the fluctuation test expected to contain pre-existing mutants (n). Revertants were counted from all replicates of the fluctuation tests, counts were sorted, and n replicates with the highest counts were omitted from calculations.
# To calculate per-base substitution rates, fluctuation data were analyzed by the maximum likelihood method, implemented using newton.LD.plating in rSalvador 1.7 (Zheng, 2017). Phenotypic mutation rates were calculated by normalizing to the average number of cells per culture. Phenotypic mutation rates were divided by the measured p1 copy number and by the number of ways leu2 (Q180*) can revert to LEU2 (2.33 for the ochre codon) to yield per-base substitution rates. 95% confidence intervals were similarly scaled by these factors. All data related to large-scale p1 fluctuation tests are fully described in Table 2.
row,Molecule,Mutation rate (s.p.b.)
1,"F652L, I775A (protein) MDYKDKALNDLRNVYADFDSLPLDFRQILIKDRATLLQKEDVEKKILERQEDAKKYAEYLKQSEIPERISLPNIKRHKGVSISFEETSEDMVLEPRPFIFDGLNIRCFRRETIFSLKNKILNMVKESSSFKNVSRQSVSFMYFKIFNKGKVIASTKSVNIYEDKIDERLEDLCNNFDDVLKKIIDVTYGYESLFVSETYSYVIFYAKSIYFPQPRCVNNWGNNIPNILTFDSFKLFTANKNNVSCIKQCSRFLWQKDFNTLEEMIEYKNGNICIVTPQLHINDVRDIKSFNDIRLYSESPIKTFSVIDNTITYLFYFKEHLGVIFNITKSRHDRRVTKFSPLSKFSDVKNITVCFDIESYFDPEKESNQVNIPFICCASIIYNKVIGNIVDFEGRDCVAQMIEYVVDICGELNISSVELIAHNGGGYDFHYILSSMYNPAAIKNILIRNNSFISFNFAHDGVKFSVKDSYSFLLCSLANASKAFLNEETFKKTDFPHHDLKTADDLYKVYKEWSSVNTEINHVVEKEKLLITSEHIVNFTKNDKSKTLIEWSKDYCRNDVLVLSKVWLEFKNAVEDIFNCELVDQTMTLAGLSYKLFQANMPFDVELRHPNKEDYFNMREALIGGRCISVNGIYKDVLCLDVKSLYPASMALYDQPYGSFKRVSSRPKDELGIYYVRVTPNRNNKSNFFPIRSHNKITYNNFEESTYIAWYTNVDIDIGLSEGHNIEYIPFDSYGNIGYSWSKKGKIFEKYIKDVLYKLKIKYEKQNNKVKRNVAKIIMNSLWGKFAQKWVNFEYFIKSEDDIDFESEEAYKIWDTDFMLIKKIKESTYSSKPIQNGVFTLSWARYHMKSIWDAGAKEGAECIYSDTDSIFVHKEHFKKNAKFMLNGLKVPIIGSEVGQLELECEFDKLLCAGKKQYMGFYTYFQDGKPCIKEKKRFKGIPSNYIIPELYAHLLSGADKEAKIQFLKFRREWGSVKGYIENKTVKAT",6.08 × 10^−9 s.p.b.
2,"Y653L, I777A (protein) MDYKDKALNDLRNVYADFDSLPLDFRQILIKDRATLLQKEDVEKKILERQEDAKKYAEYLKQSEIPERISLPNIKRHKGVSISFEETSEDMVLEPRPFIFDGLNIRCFRRETIFSLKNKILNMVKESSSFKNVSRQSVSFMYFKIFNKGKVIASTKSVNIYEDKIDERLEDLCNNFDDVLKKIIDVTYGYESLFVSETYSYVIFYAKSIYFPQPRCVNNWGNNIPNILTFDSFKLFTANKNNVSCIKQCSRFLWQKDFNTLEEMIEYKNGNICIVTPQLHINDVRDIKSFNDIRLYSESPIKTFSVIDNTITYLFYFKEHLGVIFNITKSRHDRRVTKFSPLSKFSDVKNITVCFDIESYFDPEKESNQVNIPFICCASIIYNKVIGNIVDFEGRDCVAQMIEYVVDICGELNISSVELIAHNGGGYDFHYILSSMYNPAAIKNILIRNNSFISFNFAHDGVKFSVKDSYSFLLCSLANASKAFLNEETFKKTDFPHHDLKTADDLYKVYKEWSSVNTEINHVVEKEKLLITSEHIVNFTKNDKSKTLIEWSKDYCRNDVLVLSKVWLEFKNAVEDIFNCELVDQTMTLAGLSYKLFQANMPFDVELRHPNKEDYFNMREALIGGRCISVNGIYKDVLCLDVKSLYPASMAFLDQPYGSFKRVSSRPKDELGIYYVRVTPNRNNKSNFFPIRSHNKITYNNFEESTYIAWYTNVDIDIGLSEGHNIEYIPFDSYGNIGYSWSKKGKIFEKYIKDVLYKLKIKYEKQNNKVKRNVIKAIMNSLWGKFAQKWVNFEYFIKSEDDIDFESEEAYKIWDTDFMLIKKIKESTYSSKPIQNGVFTLSWARYHMKSIWDAGAKEGAECIYSDTDSIFVHKEHFKKNAKFMLNGLKVPIIGSEVGQLELECEFDKLLCAGKKQYMGFYTYFQDGKPCIKEKKRFKGIPSNYIIPELYAHLLSGADKEAKIQFLKFRREWGSVKGYIENKTVKAT",2.02 × 10^−8 s.p.b.
3,"Y653L, I775A (protein) MDYKDKALNDLRNVYADFDSLPLDFRQILIKDRATLLQKEDVEKKILERQEDAKKYAEYLKQSEIPERISLPNIKRHKGVSISFEETSEDMVLEPRPFIFDGLNIRCFRRETIFSLKNKILNMVKESSSFKNVSRQSVSFMYFKIFNKGKVIASTKSVNIYEDKIDERLEDLCNNFDDVLKKIIDVTYGYESLFVSETYSYVIFYAKSIYFPQPRCVNNWGNNIPNILTFDSFKLFTANKNNVSCIKQCSRFLWQKDFNTLEEMIEYKNGNICIVTPQLHINDVRDIKSFNDIRLYSESPIKTFSVIDNTITYLFYFKEHLGVIFNITKSRHDRRVTKFSPLSKFSDVKNITVCFDIESYFDPEKESNQVNIPFICCASIIYNKVIGNIVDFEGRDCVAQMIEYVVDICGELNISSVELIAHNGGGYDFHYILSSMYNPAAIKNILIRNNSFISFNFAHDGVKFSVKDSYSFLLCSLANASKAFLNEETFKKTDFPHHDLKTADDLYKVYKEWSSVNTEINHVVEKEKLLITSEHIVNFTKNDKSKTLIEWSKDYCRNDVLVLSKVWLEFKNAVEDIFNCELVDQTMTLAGLSYKLFQANMPFDVELRHPNKEDYFNMREALIGGRCISVNGIYKDVLCLDVKSLYPASMAFLDQPYGSFKRVSSRPKDELGIYYVRVTPNRNNKSNFFPIRSHNKITYNNFEESTYIAWYTNVDIDIGLSEGHNIEYIPFDSYGNIGYSWSKKGKIFEKYIKDVLYKLKIKYEKQNNKVKRNVAKIIMNSLWGKFAQKWVNFEYFIKSEDDIDFESEEAYKIWDTDFMLIKKIKESTYSSKPIQNGVFTLSWARYHMKSIWDAGAKEGAECIYSDTDSIFVHKEHFKKNAKFMLNGLKVPIIGSEVGQLELECEFDKLLCAGKKQYMGFYTYFQDGKPCIKEKKRFKGIPSNYIIPELYAHLLSGADKEAKIQFLKFRREWGSVKGYIENKTVKAT",9.70 × 10^−9 s.p.b.
4,"I775A, F871Y (protein) MDYKDKALNDLRNVYADFDSLPLDFRQILIKDRATLLQKEDVEKKILERQEDAKKYAEYLKQSEIPERISLPNIKRHKGVSISFEETSEDMVLEPRPFIFDGLNIRCFRRETIFSLKNKILNMVKESSSFKNVSRQSVSFMYFKIFNKGKVIASTKSVNIYEDKIDERLEDLCNNFDDVLKKIIDVTYGYESLFVSETYSYVIFYAKSIYFPQPRCVNNWGNNIPNILTFDSFKLFTANKNNVSCIKQCSRFLWQKDFNTLEEMIEYKNGNICIVTPQLHINDVRDIKSFNDIRLYSESPIKTFSVIDNTITYLFYFKEHLGVIFNITKSRHDRRVTKFSPLSKFSDVKNITVCFDIESYFDPEKESNQVNIPFICCASIIYNKVIGNIVDFEGRDCVAQMIEYVVDICGELNISSVELIAHNGGGYDFHYILSSMYNPAAIKNILIRNNSFISFNFAHDGVKFSVKDSYSFLLCSLANASKAFLNEETFKKTDFPHHDLKTADDLYKVYKEWSSVNTEINHVVEKEKLLITSEHIVNFTKNDKSKTLIEWSKDYCRNDVLVLSKVWLEFKNAVEDIFNCELVDQTMTLAGLSYKLFQANMPFDVELRHPNKEDYFNMREALIGGRCISVNGIYKDVLCLDVKSLYPASMAFYDQPYGSFKRVSSRPKDELGIYYVRVTPNRNNKSNFFPIRSHNKITYNNFEESTYIAWYTNVDIDIGLSEGHNIEYIPFDSYGNIGYSWSKKGKIFEKYIKDVLYKLKIKYEKQNNKVKRNVAKIIMNSLWGKFAQKWVNFEYFIKSEDDIDFESEEAYKIWDTDFMLIKKIKESTYSSKPIQNGVFTLSWARYHMKSIWDAGAKEGAECIYSDTDSIYVHKEHFKKNAKFMLNGLKVPIIGSEVGQLELECEFDKLLCAGKKQYMGFYTYFQDGKPCIKEKKRFKGIPSNYIIPELYAHLLSGADKEAKIQFLKFRREWGSVKGYIENKTVKAT",4.73 × 10^−8 s.p.b.
5,"Y653L, I777K (protein) MDYKDKALNDLRNVYADFDSLPLDFRQILIKDRATLLQKEDVEKKILERQEDAKKYAEYLKQSEIPERISLPNIKRHKGVSISFEETSEDMVLEPRPFIFDGLNIRCFRRETIFSLKNKILNMVKESSSFKNVSRQSVSFMYFKIFNKGKVIASTKSVNIYEDKIDERLEDLCNNFDDVLKKIIDVTYGYESLFVSETYSYVIFYAKSIYFPQPRCVNNWGNNIPNILTFDSFKLFTANKNNVSCIKQCSRFLWQKDFNTLEEMIEYKNGNICIVTPQLHINDVRDIKSFNDIRLYSESPIKTFSVIDNTITYLFYFKEHLGVIFNITKSRHDRRVTKFSPLSKFSDVKNITVCFDIESYFDPEKESNQVNIPFICCASIIYNKVIGNIVDFEGRDCVAQMIEYVVDICGELNISSVELIAHNGGGYDFHYILSSMYNPAAIKNILIRNNSFISFNFAHDGVKFSVKDSYSFLLCSLANASKAFLNEETFKKTDFPHHDLKTADDLYKVYKEWSSVNTEINHVVEKEKLLITSEHIVNFTKNDKSKTLIEWSKDYCRNDVLVLSKVWLEFKNAVEDIFNCELVDQTMTLAGLSYKLFQANMPFDVELRHPNKEDYFNMREALIGGRCISVNGIYKDVLCLDVKSLYPASMAFLDQPYGSFKRVSSRPKDELGIYYVRVTPNRNNKSNFFPIRSHNKITYNNFEESTYIAWYTNVDIDIGLSEGHNIEYIPFDSYGNIGYSWSKKGKIFEKYIKDVLYKLKIKYEKQNNKVKRNVIKKIMNSLWGKFAQKWVNFEYFIKSEDDIDFESEEAYKIWDTDFMLIKKIKESTYSSKPIQNGVFTLSWARYHMKSIWDAGAKEGAECIYSDTDSIFVHKEHFKKNAKFMLNGLKVPIIGSEVGQLELECEFDKLLCAGKKQYMGFYTYFQDGKPCIKEKKRFKGIPSNYIIPELYAHLLSGADKEAKIQFLKFRREWGSVKGYIENKTVKAT",9.59 × 10^−8 s.p.b.
